In paper PMC7382286 (2020):

Columns and labels:
[1] = target: T1, biotinylated recombinant human Arginase 2 (human, UniProt P78540 23-354, biotin (biotinylated; site not stated)); assay: BLI
T1 chain: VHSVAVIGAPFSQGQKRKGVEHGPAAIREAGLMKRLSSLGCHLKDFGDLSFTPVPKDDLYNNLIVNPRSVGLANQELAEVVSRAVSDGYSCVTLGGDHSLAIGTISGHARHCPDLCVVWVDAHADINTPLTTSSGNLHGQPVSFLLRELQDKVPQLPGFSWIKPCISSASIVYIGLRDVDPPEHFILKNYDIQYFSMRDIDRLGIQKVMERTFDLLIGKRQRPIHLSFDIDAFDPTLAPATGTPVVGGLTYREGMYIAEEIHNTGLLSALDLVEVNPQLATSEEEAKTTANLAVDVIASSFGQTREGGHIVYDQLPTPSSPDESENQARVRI

[2] = target: T1, biotinylated recombinant human Arginase …; assay: BLI

Binder | koff [1] | Kd [2]
Fab C0021181 (Fab, V domains shown) VH: EVQLLESGGGLVRPGGSLRLSCAASEFTFRYDYHVWVRQAPGKGLEWVSAISGSGGSTYYADSVKSRFTISRDNSKNTLYLQMNSLRAEDTAVYYCARLRADLGLYMDLWGRGTLVTVSS VL: QSVLTQPPSVSAAPGQKVAVSCSGSSSNIGSHYVSWYQQLPGTAPKLLIYDNSERTSGIPDRFSGSKSGTSATLGITGLQTGDEADYYCGTWDELTSNLVFGGGTRLTVL | 4.2e-05 s⁻¹ | 0.29 nM
Fab C0021177 (Fab, V domains shown) VH: EVQLLESGGGLVQPGGSLRLSCAASGFTFRYEVAAWVRQAPGKGLEWVSAISGPAPKGYYADSVKGRFTISRDNSKNTLYLQMNSLRAEDTAVYYCARLRADLGLYMDLWGRGTLVTVSS VL: QSELTQPPTASAAPGQKVTISCSGSSSNIGNHYVSWYQQLPGTAPKLLIYDTTVLSSGIPDRFSGSKSGTSATLGITGLQTGDEADYYCGTWDELTSNLVFGGGTKLTVL | 3.5e-05 s⁻¹ | 0.17 nM
Fab C0021158 (Fab, V domains shown) VH: EVQLLESGGGLVQPGGSLRLSCAASGFTFRYEVAAWVRQAPGKGLEWVSAISGPIPKGYYADSVKGRFTISRDNSKNTLYLQMNSLRAEDTAVYYCARLRADLGLYMDLWGRGTLVTVSS VL: QSVLTQPPSVSAAPGQKVTISCSGSSSNIGNHYVSWYQQLPGTAPKLLIYDNSERTAGVPDRFSGSKSGTSATLGITGLQTGDEADYYCGTWDELTSNLVFGGGTKLTVL | 4.5e-05 s⁻¹ | 0.17 nM
Fab C0021128 (Fab, V domains shown) VH: EVQLLESGGGLVQPGGSLRLSCAASGFTFQYEVAAWVRQAPGKGLEWVSAISGPIPKGYYADSVKGRFTISRDNSKNTLYLQMNSLRAEDTAVYYCARLRADLGLYMDLWGRGTLVTVSS VL: QSVLTQPPSVSAAPGQKVTISCSGSSSNIGNHYVSWYQQLPGTAPKLLIYDNAIESSGIPDRFSGSKSGTSATLGITGLQTGDGADYYCGTWDSNLSALVFGGGTKLTVL | 0.00067 s⁻¹ | 2.5 nM
Fab C0021133 (Fab, V domains shown) VH: EVQLLESGGGLVQPGGSLRLSCAASGFTFRYDHHVWVRQAPGKGLEWVSAISGSGGSTYYADSVKGRFTISRDNSKNTLYLQMNSLRAEDTAVYYCARLRADLGLYMDLWGRGTLVTVSS VL: QSVLTQPPSVSAAPGQKVTVSCSGSSSNIGNHYVSWYQQLPGTAPKLLIYDTTVLSSGIPDRFSGSKSGTSATLGITGLQTGDEADYYCGTWDELTSNLVFGGGTKLTVL | 0.00045 s⁻¹ | 2.1 nM
Fab C0021139 (Fab, V domains shown) VH: EVQLLESGGGLVQPGGSLRLSCAASGFTFQYDYQVWVRQAPGKGLEWVSAISGSGGSTYYADSVKGRFTISRDNSKNTLYLQMNSLRAEDTAVYYCARLRADLGLYMDLWGRGTLVTVSS VL: QSVLTQPPSVSAAPGQKVTISCSGSSSNIGNHYVSWYQQLPGTAPKLLIYDNSERTSGIPDRFSGSKSGTSATLGITGLQTGDEADYYCGTWDELTSNLVFGGGTKLTVL | 0.00087 s⁻¹ | 4.4 nM
